Target: VLDL receptor (Homo sapiens, UniProt P98155)
Assay: SPR

B1: NDSK-II fragment of fibrin NDSK-II (central region) (protein)
chain 1: ADSGEGDFLAEGGGVRGPRVVERHQSACKDSDWPFCSDEDWNYKCPSGCRMKGLIDEVNQDFTNRINKLKNSLFEYQKNNKDSHSLTTNIMEILRGDFSSANNRDNTYNRVSEDLRSRIEVLKRKVIEKVQHIQLLQKNVRAQLVDMKRLEVDIDIKIRSCRGSCSRALAREVDLKDYEDQQKQLEQVIAKDLLPSRDRQHLPLIKMKPVPDLVPGNFKSQLQKVPPEWKALTDMPQMRMELERPGGNEITRGGSTSYGTGSETESPRNPSSAGSWNSGSSGPGSTGNRNPGSSGTGGTATWKPGSSGPGSTGSWNSGSSGTGSTGNQNPGSPRPGSTGTWNPGSSERGSAGHWTSESSVSGSTGQWHSESGSFRPDSPGSGNARPNNPDWGTFEEVSGNVSPGTRREYHTEKLVTSKGDKELRTGKEKVTSGSTTTTRRSCSKTVTKTVIGPDGHKEVTKEVVTSEDGSDCPEAMDLGTLSGIGTLDGFRHRHPDEAAFFDTASTGKTFPGFFSPMLGEFVSETESRGSESGIFTNTKESSSHHPGIAEFPSRGKSSSYSKQFTSSTSYNRGDSTFESKSYKMADEAGSEADHEGTHSTKRGHAKSRPVRDCDDVLQTHPSGTQSGIFNIKLPGSSKIFSVYCDQETSLGGWLLIQQRMDGSLNFNRTWQDYKRGFGSLNDEGEGEFWLGNDYLHLLTQRGSVLRVELEDWAGNEAYAEYHFRVGSEAEGYALQVSSYEGTAGDALIEGSVEEGAEYTSHNNMQFSTFDRDADQWEENCAEVYGGGWWYNNCQAANLNGIYYPGGSYDPRNNSPYEIENGVVWVSFRGADYSLRAVRMKIRPLVTQ
chain 2: QGVNDNEEGFFSARGHRPLDKKREEAPSLRPAPPPISGGGYRARPAKAAATQKKVERKAPDAGGCLHADPDLGVLCPTGCQLQEALLQQERPIRNSVDELNNNVEAVSQTSSSSFQYMYLLKDLWQKRQKQVKDNENVVNEYSSELEKHQLYIDETVNSNIPTNLRVLRSILENLRSKIQKLESDVSAQMEYCRTPCTVSCNIPVVSGKECEEIIRKGGETSEMYLIQPDSSVKPYRVYCDMNTENGGWTVIQNRQDGSVDFGRKWDPYKQGFGNVATNTDGKNYCGLPGEYWLGNDKISQLTRMGPTELLIEMEDWKGDKVKAHYGGFTVQNEANKYQISVNKYRGTAGNALMDGASQLMGENRTMTIHNGMFFSTYDRDNDGWLTSDPRKQCSKEDGGGWWYNRCHAANPNGRYYWGGQYTWDMAKHGTDDGVVWMNWKGSWYSMRKMSMKIRPFFPQQ
chain 3: YVATRDNCCILDERFGSYCPTTCGIADFLSTYQTKVDKDLQSLEDILHQVENKTSEVKQLIKAIQLTYNPDESSKPNMIDAATLKSRKMLEEIMKYEASILTHDSSIRYLQEIYNSNNQKIVNLKEKVAQLEAQCQEPCKDTVQIHDITGKDCQDIANKGAKQSGLYFIKPLKANQQFLVYCEIDGSGNGWTVFQKRLDGSVDFKKNWIQYKEGFGHLSPTGTTEFWLGNEKIHLISTQSAIPYALRVELEDWNGRTSTADYAMFKVGPEADKYRLTYAYFAGGDAGDAFDGFDFGDDPSDKFFTSHNGMQFSTWDNDNDKFEGNCAEQDGSGWWMNKCHAGHLNGVYYQGGTYSKASTPNGYDNGIIWATWKTRWYSMKKTTMKIIPFNRLTIGEGQQHHLGGAKQVRPEHPAETEYDSLYPEDDL
With B1 the Kd was 9.6 nM.
